Results: FireProtDB (doi:10.1021/bi5005975)

B1: H56V, Q9NAV8 (parent)
chain: MGFKQDIATIRGDLRTYAQDIFLAFLNKYPDERRYFKNYVGKSDQELKSMAKFGDHTEKVFNLMMEVADRATDCVPLASDANTLVQMKQHSSLTTGNFEKLFVALVEYMRASGQSFDSQSWDRFGKNLVSALSSAGMK

Variants of: B1
Conditions: Amphitrite ornata; pH 7; 20 °C; Urea; UV?visible spectrophotometer; potassium phosphate 100 mM; transition: 2; reversible: yes; structure 1EW6; whole UniProt chain shown

Variant | ddG of mutation (higher = less stable) [kcal/mol] | denaturant midpoint (higher = more stable) [M] | unfolding free energy [kcal/mol]
H56V | -5.1 | 5.35 | 7.52

Same assay, conditions: Amphitrite ornata; pH 7; Thermal; UV?visible spectrophotometer; potassium phosphate 100 mM; transition: 2; reversible: yes; structure 1EW6; whole UniProt chain shown

Variant | Tm [°C] | change of melting temperature, mutant - wild type (higher = more stable) [°C]
H56V | 61 | 7
